In patent US20220306744A1 (CRESCENDO BIOLOGICS, published 2022):
Substitutions are numbered along the chain they refer to. Values belong to the binder of their own block, whether it stands above or below them.

What was measured:
[1] = biological target: T1, human PD-1 expressed on cells (CHO TREX human PD1 cell line, full-length human PD-1 sequence) (human, UniProt Q15116 21-288); assay: cell-based or functional assay
[2] = biological target: T1, human PD-1 expressed on cells (CHO TREX …); assay: cell-based or functional assay; remark: listed apart in the source
[3] = biological target: T2, recombinant human PD-1 Fc chimera (human, UniProt Q15116 25-167); assay: SPR Biacore T200, single cycle kinetics, human PD-1-hu Fc amine coupled to CM5, 1:1 model
T2 construct: Bought protein (R&D 1086-PD in the HTRF assay); also called human PD-1-hu Fc; huPD-1Fc; not shown: human Fc
T2 sequence (Q15116 25-167 limits assumed, stated change not applied): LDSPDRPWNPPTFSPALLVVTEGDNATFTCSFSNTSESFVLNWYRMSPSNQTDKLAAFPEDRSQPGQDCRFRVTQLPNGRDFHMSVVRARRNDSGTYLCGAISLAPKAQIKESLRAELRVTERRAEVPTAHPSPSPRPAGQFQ
Protocol: Binding kinetics of certain humabodies binding to human PD-1-hu Fc were measured by surface plasmon resonance (SPR) technology using Biacore T200 instrument (GE Healthcare). Recombinant human PD-1-hu Fc was immobilized by standard amine coupling to CM5 sensors chip (GE Healthcare) using 0.1 mg/ml solution of antigen in 10 mM sodium acetate at pH 5.5. For the reference flow cell, a blank immobilisation was carried out. Single cycle kinetics assays were used to study the interaction, a five point, three-fold dilution series of each Humabody® VH was made with a top concentration of 30 nM. The binding kinetics were followed by flowing the Humabody® VH over the chip surface in HBS EP+ buffer at a flow rate of 30 μl/min. The contact time for each of the association steps was 180 seconds and the dissociation step was varied between 1200-3600 seconds. The data was fitted to a 1:1 binding model after double reference subtraction using the Biacore T200 Evaluation software.

[4] = biological target: T1, human PD-1 expressed on cells (CHO TREX …); assay: FMAT: inhibition of human Fc tagged human PD-L1 (400 pM) binding to CHO human PD-1 cells
Protocol: (§1) Purified VH were serially diluted in FMAT assay buffer and tested for binding to CHO human PD-1 cells as described above and for inhibition of human PD-L1/PD-L2 binding to CHO human PD-1 cells. All reagents and serially diluted VH were prepared in FMAT assay buffer. VH, buffer (total binding controls) or excess competitor (non-specific binding control) were incubated with 400 pM human Fc tagged human PD-L1 or 100 pM PDL-2, 4 nM anti human Fc-Alexa Fluor-488 and 2000 per well CHO human PD-1 DRAQ5 stained cells in a 384 well black clear-bottomed assay plates. Plates were incubated for 2 hours at room temperature then fluorescence measured in the FL2 (502 nm-537 nm) and FL5 (677-800 nm) channels on the Mirrorball plate reader (TTP) following excitation at 488 nm and 640 nm. Data was expressed as a % of the total binding control (i.e. % control) after subtraction of the background signal determined from the non-specific binding control wells. The results are shown in FIG. 5 and in Tables 8 and 9 below.

[5] = biological target: T1, human PD-1 expressed on cells (CHO TREX …); assay: FMAT: inhibition of PDL-2 (100 pM) binding to CHO human PD-1 cells
Protocol: as §1

[6] = biological target: T1, human PD-1 expressed on cells (CHO TREX …); assay: FMAT: inhibition of human Fc tagged human PD-L1 (400 pM) binding to CHO human PD-1 cells; remark: listed apart in the source
Protocol: as §1

[7] = biological target: T3, Strep tagged recombinant human PD-1 (human, UniProt Q15116 25-167, limits assumed); assay: SPR Biacore T200, single cycle kinetics, Strep tagged human PD-1 amine coupled, 1:1 model
T3 construct: whole entry named; also called Strep tagged human PD-1; not shown: Strep tag
T3 sequence (Q15116 25-167 limits assumed): as the sequence (Q15116 25-167 limits assumed, stated change not applied) above
Protocol: Single cycle kinetics assays were used to study the interaction between human PD-1 with Humabody VHs on a Biacore T200 instrument (GE Healthcare). Strep tagged recombinant human PD-1 was amine coupled to one flow cell of a CM-5 chip to create a low density surface (14 RU) using standard Biacore reagents. For the reference flow cell, a blank immobilisation was carried out. A five point, three-fold dilution series of each Humabody VH was made with a top concentration of 25 nM. The binding kinetics were followed by flowing the Humabody VH over the chip surface in HBS EP+ buffer at a flow rate of 30 μl/min. The contact time for each of the association steps was 180 seconds and the dissociation step was 3300 seconds. The data was fitted to a 1:1 binding model after double reference subtraction using the Biacore T200 Evaluation software.

[8] = biological target: T2, recombinant human PD-1 Fc chimera; assay: SPR Biacore T200, single cycle kinetics, human Fc tagged PD-1 captured on Protein G, 1:1 model
Protocol: Single cycle kinetics assays were used to study the interaction between human Fc tagged human PD-1 with Humabody® VH on a Biacore T200 instrument (GE Healthcare). Protein G was amine coupled to two flow cells of a CM-5 chip. Human Fc tagged recombinant human PD-1 was captured onto one of the flow cells. The other was used as the reference flow cell. A five point, three-fold dilution series of each Humabody® VH was made with a top concentration within the range of 50 to 150 nM. The binding kinetics were followed by flowing the Humabody® VH over the chip surface in HBS EP+ buffer at a flow rate of 30 μl/min. The contact time for each of the association steps was 180 seconds and the dissociation step was 3600 seconds. The data was fitted to a 1:1 binding model after double reference subtraction using the Biacore T200 Evaluation software.

T1 sequence (Q15116 21-288): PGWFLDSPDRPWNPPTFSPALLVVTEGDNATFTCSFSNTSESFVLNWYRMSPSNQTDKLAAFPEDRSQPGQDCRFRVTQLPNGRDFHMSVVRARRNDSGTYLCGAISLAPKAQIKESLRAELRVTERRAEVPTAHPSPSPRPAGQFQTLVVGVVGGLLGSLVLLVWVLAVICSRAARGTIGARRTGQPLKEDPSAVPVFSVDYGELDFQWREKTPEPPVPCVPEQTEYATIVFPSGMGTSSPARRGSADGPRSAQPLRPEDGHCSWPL

B2: 1.1a-4GS-1.57b (other)
chain: EVQLLESGGGSVQPGRSLRLSCAASGFTFDDHAMHWVRQAPGKGLEWVSGISWNSGSMGYADSVKDRFTISRDNAKSSLYLQMNSLRAEDTALYYCVREKGPGLTGSTADYYGLDVWGQGTMVTVSSGGGGSGGGGSGGGGSGGGGSQVQLVESGGGLVKPGGSLRLSCAASGFTFSDNSMTWMRQAPGKGLEWVSYISSGGGVIFYADSVKGRFTISRDNAKNSLYLQMNSLRADDTAVYYCAREAPLRLGESPHDAFDISGQGTMVTVSS
EC50 (M), NFAT-Luciferase reporter gene assay [1]: 3.9e-09 M

B4: 1.1b-2GS-1.1a (other)
chain: QVQLVESGGGLVKPGGSLRLSCAASGFTFSDYTMTWMRQAPGKGLEWVSYISTGGTIKYYTDSVKGRFTISRDNAKNSLYLQMNSLRADDTAVYYCAREAPLRLGESPHDAFDIWGQGTMVTVSSGGGGSGGGGSEVQLLESGGGSVQPGRSLRLSCAASGFTFDDHAMHWVRQAPGKGLEWVSGISWNSGSMGYADSVKDRFTISRDNAKSSLYLQMNSLRAEDTALYYCVREKGPGLTGSTADYYGLDVWGQGTMVTVSS
notes: Biparatopic VH-linker-VH; His tag implied by the assays; not in the chain
EC50 (M), NFAT-Luciferase reporter gene assay [1]: 7.2e-09 M
Kd [3]: 0.0346 nM
koff [3]: 1.08e-05 s⁻¹
kon [3]: 313000 M⁻¹ s⁻¹

B6: 1.1b (VHH)
VHH: QVQLVESGGGLVKPGGSLRLSCAASGFTFSDYTMTWMRQAPGKGLEWVSYISTGGTIKYYTDSVKGRFTISRDNAKNSLYLQMNSLRADDTAVYYCAREAPLRLGESPHDAFDIWGQGTMVTVSS
notes: also called Humabody 1.1b
IC50 [4]: 23 nM

The next lines start with the values.

EC50 (M), NFAT-Luciferase reporter gene assay [1]: 3.2e-09 M
EC50 uM, PathHunter Checkpoint assay (PD-1 signalling) [2]: 0.0005 µM
Max. % increase in response over baseline, PathHunter Checkpoint assay [2]: 253%
B1: 1.77b-4GS-1.21a (other)
chain: EVQLVESGGGLVKPGGSLRLSCAASGFTFSDSSMTWMRQAPGKGLEWVSYISSGGGVKFYTDSVKGRFTISRDNAKNSLYLQMNSLRAEDTAVYYCAREAPLRLGESPHDAFDISGQGTMVTVSSGGGGSGGGGSGGGGSGGGGSEVQLVESGGGLVQPGRSLRLSCAASGFTFDDYAMHWVRQAPGKDLEWVSGISWNGGSMGYAASVKGRFTISRDNAKNSLYLQMNSLRAEDTALYYCVREKGPGLTGSTADYYGLDVWGQGTMVTVSS

EC50 (M), NFAT-Luciferase reporter gene assay [1]: 2.3e-09 M
EC50 uM, PathHunter Checkpoint assay (PD-1 signalling) [2]: 0.00059 µM
Max. % increase in response over baseline, PathHunter Checkpoint assay [2]: 1330%
B3: 1.77b-1GS-1.21a (other)
chain: EVQLVESGGGLVKPGGSLRLSCAASGFTFSDSSMTWMRQAPGKGLEWVSYISSGGGVKFYTDSVKGRFTISRDNAKNSLYLQMNSLRAEDTAVYYCAREAPLRLGESPHDAFDISGQGTMVTVSSGGGGSEVQLVESGGGLVQPGRSLRLSCAASGFTFDDYAMHWVRQAPGKDLEWVSGISWNGGSMGYAASVKGRFTISRDNAKNSLYLQMNSLRAEDTALYYCVREKGPGLTGSTADYYGLDVWGQGTMVTVSS

EC50 uM, PathHunter Checkpoint assay (PD-1 signalling) [2]: 0.0002 µM
Max. % increase in response over baseline, PathHunter Checkpoint assay [2]: 48.5%
B5: 1.77b-4GS-1.77b (other)
chain: EVQLVESGGGLVKPGGSLRLSCAASGFTFSDSSMTWMRQAPGKGLEWVSYISSGGGVKFYTDSVKGRFTISRDNAKNSLYLQMNSLRAEDTAVYYCAREAPLRLGESPHDAFDISGQGTMVTVSSGGGGSGGGGSGGGGSGGGGSEVQLVESGGGLVKPGGSLRLSCAASGFTFSDSSMTWMRQAPGKGLEWVSYISSGGGVKFYTDSVKGRFTISRDNAKNSLYLQMNSLRAEDTAVYYCAREAPLRLGESPHDAFDISGQGTMVTVSS

IC50 [5]: 2.3 nM
IC50 [4]: 4.2 nM
IC50 [6]: 1.8 nM
Kd [7]: 0.0782 nM
koff [7]: 3.17e-05 s⁻¹
kon [7]: 405000 M⁻¹ s⁻¹
Kd [3]: 0.000124 nM
koff [3]: 6.68e-08 s⁻¹
kon [3]: 537000 M⁻¹ s⁻¹
Kd [8]: 0.0441 nM
koff [8]: 2.11e-05 s⁻¹
kon [8]: 479000 M⁻¹ s⁻¹
B7: 1.57b (VHH)
VHH: B6 VHH with Y32N, T33S, T53S, T56G, I57V, K58I, Y59F, T61A, W115S

EC50 (M), NFAT-Luciferase reporter gene assay [1]: 8.5e-09 M
IC50 [4]: 5.6 nM
Kd [3]: 0.035 nM
koff [3]: 1.1e-05 s⁻¹
kon [3]: 316000 M⁻¹ s⁻¹
B8: 1.1b-4GS-1.1a (other)
chain: QVQLVESGGGLVKPGGSLRLSCAASGFTFSDYTMTWMRQAPGKGLEWVSYISTGGTIKYYTDSVKGRFTISRDNAKNSLYLQMNSLRADDTAVYYCAREAPLRLGESPHDAFDIWGQGTMVTVSSGGGGSGGGGSGGGGSGGGGSEVQLLESGGGSVQPGRSLRLSCAASGFTFDDHAMHWVRQAPGKGLEWVSGISWNSGSMGYADSVKDRFTISRDNAKSSLYLQMNSLRAEDTALYYCVREKGPGLTGSTADYYGLDVWGQGTMVTVSS
notes: Biparatopic VH-linker-VH
